Data as given in the supplement of paper PMC9732359.
± gives the uncertainty stated by the source.

Test: protein stability index of a GFP-peptide fusion (yeast GPS) (PSI 1-4); higher = more stable; sorted into four equal gates, so the index is relative within each strain
Settings: san1∆
Summary of the method: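 Plasmids isolated from each sorting gate were PCR-amplified and Illumina-sequenced, and barcodes assigned the reads to strains. The gates, four of equal size, were set by GFP/Cherry fluorescence ratio on mid-log cultures in leucine-free medium. These cultures were yeast carrying a pooled library of tiled 17-residue yeast protein peptides fused downstream of GFP on a plasmid that also expresses Cherry. The protein stability index is the sum of every gate's read frequency times its gate number.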

Sequence | protein stability index
VIWELDDSANIVNVNFM [DIS3] | 3.21 ± 0.042
VKLLKTTVPIVSKKRQK [POP3] | 2.87 ± 0.083

Same assay, conditions: ubr1∆

Sequence | protein stability index
TNQIFQSRRYNLRRHSD [SIN4] | 3.08 ± 0.031
TNQLVLLQKMLNLLNYQ [YML103C/NUP188] | 1.43 ± 0.031
TNSNNTPLQSQLNLNNL [PGD1] | 3.05 ± 0.042
TNWDDHAIIIFGYPETI [YMR153W/NUP53] | 2.71 ± 0.038
TPAEMSRPATTTRNGFM [FAS2] | 2.52 ± 0.042
TPESVKPANASHAIRLG [RGR1] | 2.47 ± 0.039
TPFSFGTANNNSNTTNQ [YJL041W/NSP1] | 3.09 ± 0.041
TPGSVSLSAYNLTDEGY [PRP8] | 1.96 ± 0.21
TPLKARQREMAEEQTKL [YLR018C/POM34] | 3.41 ± 0.056
TPLQSQLNLNNLTPANI [PGD1] | 3.01 ± 0.04
TPLRDEVTDKNYYYLFD [PRP8] | 3.11 ± 0.059
TPMDESSYDLLFNESFI [SRP72] | 3.12 ± 0.052
TPRGNHWMGSSVSGSPR [YMR129W/POM152] | 3.13 ± 0.064
TPSTEESRAQNVFGQDN [SWI3] | 2.55 ± 0.048
TPVSHNDDLYGKVTDVR [RPL1A] | 3.12 ± 0.084
TPVVLATPIPEEVQQAQ [RPS5] | 2.83 ± 0.13
TPYSNESGLVNADLDVK [RPO21] | 2.87 ± 0.046
TQAKRIFLQQFLQELLK [SWI1] | 2.1 ± 0.064
TQKTELEIDNKDSVTEC [SIR4] | 2.5 ± 0.085
TQLDDLQHELMISIIKL [YML103C/NUP188] | 2.51 ± 0.093
TQMDGFDQSTNVKVIMA [RPT3] | 2.31 ± 0.061
TQTFNGSIFTHETTFMT [YML031W/NDC1] | 2.89 ± 0.047
TQYKAGKASLFAQGKRR [RPL42A] | 3.14 ± 0.1
TRAQYLAFAKLVHSEYL [SRP68] | 1.79 ± 0.052
TRDVEPENLQVTSEKYP [BRR2] | 3.13 ± 0.11

Sequence | protein stability index
TREKVLEDKLRAVLTPL [RRP46] | 2.82 ± 0.11
TRKILEILNECHDELKA [MED4] | 2.71 ± 0.097
TRLKSLLKPFHVKVNDK [SIR3] | 2.81 ± 0.052
TRLVQLREFRITHNTNI [GRR1] | 1.38 ± 0.09
TRRKRRQGRSNRRGMLA [SNF5] | 2.99 ± 0.11
TSAASGDAAPAEEAAAE [RPP0] | 3.34 ± 0.11
TSANGIVQFTYGGDGLD [RPO31] | 3.04 ± 0.064
TSAVELGAIEQILIFAA [YJL039C/NUP192] | 3.32 ± 0.13
TSELGNDDFSEVFEFKT [BRR2] | 2.7 ± 0.099
TSLATSAGQPNLLLSAS [ASC1] | 1.99 ± 0.049
TSLKCLVNRKPIPFEFQ [SNF2] | 2.19 ± 0.03
TSLLDSLISVLEASLNS [YJL039C/NUP192] | 1.58 ± 0.08
TSPTMPDYYVSILSFVD [RPT2] | 2.15 ± 0.041
TSRKALEEVSLKWIDTA [RPL3] | 1.9 ± 0.088
TSSTHERKSKTYVITKN [RET1] | 2.84 ± 0.076
TSTEKLYKLNDKIAVAV [PRE9] | 2.95 ± 0.068
TSTGIIRCHREDCDLVI [POP5] | 2.56 ± 0.066
TSTNGDSENNEENSSSN [RGR1] | 2.95 ± 0.086
TSYKKWSFDLPEMSNLY [PRP8] | 2.13 ± 0.044
TTARAKARAKKTKKEKG [RPN2] | 3.21 ± 0.089
TTDDKSMDTKKKHKQKK [BRN1] | 3.27 ± 0.054
TTGSIFEKDLMAYFDEN [BRN1] | 3.13 ± 0.033
TTLKLSPSPILLTSAGC [NUT1] | 1.51 ± 0.036
TTPEINNFIVERVQSDE [SRP68] | 2.88 ± 0.13
TTSEATANDRQINNVHL [RPN4] | 2.7 ± 0.097

Sequence | protein stability index
TTSERVSNENKKNIDYQ [RRI1] | 3.05 ± 0.18
TTSLNPIQSKVFHAAFE [BRR2] | 2.85 ± 0.052
TTTRIQSQQAQPSDVMF [MED2] | 2.87 ± 0.043
TTTVLKRYANHTQDIIG [RET1] | 2.9 ± 0.055
TTYSVDDYYKEIIGGGS [ISW2] | 3.33 ± 0.13
TVDLALFGSPPFILEYD [YMR129W/POM152] | 2.7 ± 0.032
TVELQVGLKNYDPQRDK [RPL1A] | 3.18 ± 0.076
TVPELEIPTQIYRTTRQ [ARP9] | 2.83 ± 0.067
TVTIASSLNLEDTPAND [RPB8] | 2.88 ± 0.067
TYGVPGSENKRGSLDSE [NUT1] | 2.99 ± 0.074
TYLLKNDLVKARDLLDD [RPN9] | 2.52 ± 0.18
TYNEDIPVEILVRRLSD [PRE9] | 2.85 ± 0.059
TYNMIDAAAEKRNGDEV [ARP7] | 3.18 ± 0.044
VAARAEILRIHSRKMNL [RPT6] | 2.64 ± 0.068
VARIYASFNDTFVHVTD [RPS14A] | 2.2 ± 0.055
VASQSPHATATEKEPVP [SNF6] | 3.35 ± 0.077
VCFNNLVDENTDYLYRR [YCS4] | 2.08 ± 0.037
VDIEYTRGRNIIMHKDV [RET1] | 2.84 ± 0.1
VDPVYKDVAKPTGPKTA [FAS2] | 2.34 ± 0.069
VDRSKYNIELPLPPRID [RPT1] | 3.14 ± 0.17
VDVAKDINVKDLKASQR [RPT6] | 3.22 ± 0.098
VDVELITSINVENDTFI [FAS2] | 3.32 ± 0.072
VDVFAMPQSGTGVSVEA [RPN11] | 3.05 ± 0.095
VEDVSQNAADLQQICRV [RPL9A] | 3.03 ± 0.051
VEGPKFTIDAKPPISDS [YLR335W/NUP2] | 3.36 ± 0.046

Sequence | protein stability index
VELLDSNDRVNPLIELT [ITC1] | 3.02 ± 0.069
VEVKDASLVDYVQVRQP [RPS5] | 1.18 ± 0.067
VFHAAFEGDSNMLICAP [BRR2] | 2.615 ± 0.026
VFLSNLVETCLNDLVES [BRR2] | 1.89 ± 0.039
VFQAKMMDMLKQTGRDQ [RPN11] | 2.96 ± 0.062
VGCKNLERLTLVFCKHI [GRR1] | 1.63 ± 0.084
VGEMKLLKKKDDPSKVR [YLR335W/NUP2] | 2.74 ± 0.16
VGGHNVTIREQINIMPS [SIR3] | 2.94 ± 0.067
VGHLSILPQQSKLKLKN [ECM29] | 2.5 ± 0.15
VGIDTHTATDIYQTLIA [SNF2] | 1.72 ± 0.028
VGKFLGYVSSLVEPSKV [FAS1] | 1.89 ± 0.052
VGKRVPIVEDRRVKQLD [SIR4] | 3.35 ± 0.26
VGKTVKQLIMESQEKYM [NSL1] | 3.34 ± 0.055
VGQAGRPKKITGWITQS [RPN1] | 2 ± 0.044
VGRRAANLRVLNSYWVN [RPL15A] | 1.69 ± 0.07
VGVENNGQYAAFVKDMQ [RPC37] | 3.41 ± 0.1
VGVNKDSYLILDTLPSE [RPT5] | 3.14 ± 0.032
VGVVFGSGAANENPYNN [COR1] | 3.07 ± 0.12
VHSSSPSTSSNMDVGNP [GAL11] | 3.14 ± 0.054
VIKRLEASTVPWGDYLQ [BRR2] | 1.35 ± 0.11
VITLLNNSSITLRCSVV [YCS4] | 1.16 ± 0.051
VIVELLPQSEWKAPSSI [DIS3] | 2.1 ± 0.048
VIWELDDSANIVNVNFM [DIS3] | 2.99 ± 0.045
VKLLKTTVPIVSKKRQK [POP3] | 2.74 ± 0.07
